Conditions: Mus musculus, 25 °C, CD, whole UniProt chain shown
[1] = pH 4, Urea, Sodium acetate 10 mM

B1: Interleukin-6 wild type, P08505 (protein)
chain: MKFLSARDFHPVAFLGLMLVTTTAFPTSQVRRGDFTEDTTPNRPVYTTSQVGGLITHVLWEIVEMRKELCNGNSDCMNNDDALAENNLKLPEIQRNDGCYQTGYNQEICLLKISSGLLEYHSYLEYMKNNLKDNKKDKARVLQRDTETLIHIFNQEVKDLHKIVLPTPISNALLTDKLESQKEWLRTKTIQFILKSLEEFLKVTLRSTRQT
For B1, the denaturant m value [1] was 3 kcal/mol/M, the “denaturant midpoint (higher = more stable)” value (from here on “denaturant midpoint”) [1] was 3.59 M and the unfolding free energy [1] was 10.8 kcal/mol. For the same protein, the denaturant m value (pH 7.4, GdnHCl, Tris-HCl 10 mM) was 1 kcal/mol/M, the “denaturant midpoint” value (pH 7.4, GdnHCl, Tris-HCl 10 mM) was 1.9 M and the unfolding free energy (pH 7.4, GdnHCl, Tris-HCl 10 mM) was 1.9 kcal/mol. For the same protein, the denaturant m value (pH 7.4, Urea, Tris-HCl 10 mM) was 1.1 kcal/mol/M, the “denaturant midpoint” value (pH 7.4, Urea, Tris-HCl 10 mM) was 5.2 M and the unfolding free energy (pH 7.4, Urea, Tris-HCl 10 mM) was 5.7 kcal/mol.

Reference: FireProtDB (doi:10.1021/bi962939w)
